B1: scar9::NifS::TS (MPP-processed product of the MTP-FAγ51::NifS::TwinStrep fusion polypeptide encoded by SN231) (enzyme)
chain: not shown
notes: Bait in the reverse pull-down; the text names scar9::NifS::TS in the eluate; also called MTP-FAγ51::NifS::TS
B2: MTP-FAγ51::NifS::HA fusion polypeptide encoded by SN31, unprocessed form (enzyme)
chain: MMAMAVFRREGRRLLPSIAARPIAAIRSPLSSDQEEGLLGVRSISTQVVRNRGGMKQVYLDNNATTRLDPMVLEAMMPFLTDFYGNPSSIHDFGIPAQAALERAHQQAAALLGAEYPSEIIFTSCATEATATAIASAIALLPERREIITSVVEHPATLAACEHLERQGYRIHRIAVDSEGALDMAQFRAALSPRVALVSVMWANNETGVLFPIGEMAELAHEQGALFHCDAVQVVGKIPIAVGQTRIDMLSCSAHKFHGPKGVGCLYLRRGTRFRPLLRGGHQEYGRRAGTENICGIVGMGAACELANIHLPGMTHIGQLRNRLEHRLLASVPSVMVMGGGQPRVPGTVNLAFEFIEGEAILLLLNQAGIAASSGSACTSGSLEPSHVMRAMNIPYTAAHGTIRFSLSRYTREKEIDYVVATLPPIIDRLRALSPYWQNGKPRPADAVFTPVYGGGYPYDVPDYA
notes: Present in the soluble input sample but not detected in the eluate; also called unprocessed NifS; unprocessed MTP-FAγ51::NifS
B3: scar9::GG::NifU::TS (MPP-processed product of the MTP-FAγ51::NifU::TwinStrep fusion polypeptide encoded by SN166) (other)
chain: not shown
notes: Expressed in N. benthamiana leaves with mitochondrial targeting; N-terminal analysis and the tryptic peptide ISTQVVR confirmed cleavage at the intended MPP site; SEC indicated a heterotetramer of 2 NifS and 2 NifU; also called scar9-NifU::TS; scar9-NifU-TwinStrep

How the values were obtained:
[1] = molecular target: T1, scar9::GG::NifU::HA (MPP-processed product of the MTP-FAγ51::NifU::HA fusion polypeptide encoded by SN32) (Klebsiella oxytoca, UniProt P05343 1-274); test: StrepTactinXT pull-down of NifS::TS from leaves co-infiltrated with SN231 and SN32; anti-Strep and anti-HA Western blots
T1 construct: also called scar9::NifU::HA; processed NifU
T1 sequence: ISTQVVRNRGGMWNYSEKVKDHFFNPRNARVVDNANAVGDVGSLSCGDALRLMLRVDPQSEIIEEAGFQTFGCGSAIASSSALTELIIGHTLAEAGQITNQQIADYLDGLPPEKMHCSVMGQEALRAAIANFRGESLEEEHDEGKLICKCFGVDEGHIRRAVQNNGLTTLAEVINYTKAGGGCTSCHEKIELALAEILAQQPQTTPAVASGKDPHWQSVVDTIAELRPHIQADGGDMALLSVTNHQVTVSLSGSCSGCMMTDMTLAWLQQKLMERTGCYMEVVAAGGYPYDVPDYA

[2] = molecular target: B3; test: StrepTactinXT pull-down of NifU::TS from N. benthamiana leaves co-infiltrated with SN31 and SN166, anaerobic non-denaturing extraction; anti-HA Western blot of the eluate
[3] = molecular target: T2, scar9::GG::NifS::HA (MPP-processed product of the MTP-FAγ51::NifS::HA fusion polypeptide encoded by SN31) (Klebsiella oxytoca, UniProt P05344 1-397); test: StrepTactinXT pull-down of NifU::TS from leaves co-infiltrated with SN31 and SN166, first purification; anti-Strep and anti-HA Western blots
T2 construct: This processed form was the one found in the eluate with NifU::TS; also called scar9-NifS::HA; processed NifS
T2 sequence: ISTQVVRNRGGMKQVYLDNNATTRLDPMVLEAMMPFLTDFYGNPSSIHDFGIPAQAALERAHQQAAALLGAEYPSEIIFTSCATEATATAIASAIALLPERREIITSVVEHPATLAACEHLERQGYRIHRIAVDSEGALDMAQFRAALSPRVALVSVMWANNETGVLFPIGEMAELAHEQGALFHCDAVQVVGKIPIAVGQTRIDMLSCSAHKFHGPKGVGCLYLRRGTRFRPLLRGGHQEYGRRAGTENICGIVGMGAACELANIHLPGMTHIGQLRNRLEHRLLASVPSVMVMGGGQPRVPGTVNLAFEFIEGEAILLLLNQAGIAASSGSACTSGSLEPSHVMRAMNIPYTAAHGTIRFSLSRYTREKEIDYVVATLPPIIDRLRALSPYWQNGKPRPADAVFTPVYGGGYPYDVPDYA

B1
binding result [1]: binds

B2
binding result [2]: no binding

B3
binding result [3]: binds

Source: patent US20220170038A1 (COMMONWEALTH SCIENTIFIC INDUSTRIAL RESEARCH ORGANISATION, published 2022)
